# Laboratory results: the DeepSol protein solubility set
# Assay: soluble on expression in E. coli; label from the status in PepcDB or PDB records
row,Sequence,soluble on expression in E. coli
1,MDRTIYDNYVKILRKELVPALGCTEPIALAYASAKAREVLGEFPEHMTVWCSGNIIKNVKGVKVPNSGGMKGVEAAAVLGLAGGDPSQALEVLEAVTQTDIKRTKELLRESFCDCCLKEGVANLYIEVQVVNGENEATVIIEQEHTNITRIEKNGKIVYAHKKEVSGEEIEVDKSLLNLADILVFAQEVDLNEVRDVLARQIRYNSRIAKEGLEHEWGAQVGRVIAEEFGTTVQWKAVASAAAGSDARMSGCSLPVIINSGSGNQGMTCSLPVIEYGKELKKSEEEIYRALCVSNLVALNQKRYIGSLSAYCGAVCAAAGAGAGITYLCGGNLEQIQNTVVNTIADAGGIVCDGAKPSCAAKIATSLQAAILSHKMAMRGLVFGSGEGLVMDCPEDTIKAVGYVGRAGMKQTDVEILNLMIGKTKIEDIEK,not soluble
2,MDSARALIARGWGVSLVSRCLRVSRAQLHVILRRTDDWMDGRRSRHTDDTDVLLRIHHVIGELPTYGYRRVWALLRRQAELDGMPAINAKRVYRLMRQNALLLERKPAVPPSKRAHTGRVAVKESNQRWCSDGFEFCCDNGERLRVTFALDCCDREALHWAGTTGGFNSETVQDVMLGAVERRFGNDLPSSPVEWLTDNGSCYRANETRQFARMLGLEPKNTAVRSPESNGIAESFVKTIKRDYISIMPKPDGLTAAKNLAEAFEHYNEWHPHSALGYRSPREYLRQRACNGLSDNRCLEI,not soluble
3,MDSETLPESEKYNPGPQDFLLKMPGVNAKNCRSLMHHVKNIAELAALSQDELTSILGNAANAKQLYDFIHTSFAEVVSKGKGKK,soluble
4,MDSFKVVLEGPAPWGFRLQGGKDFNVPLSISRLTPGGKAAQAGVAVGDWVLNIDGENAGSLTHIEAQNKIRACGERLSLGLSRAQPVQSKPQKVQTSDKQLLRQPVPDASKQRLMEDTEDWRPRPGTGQSRSFRILAHLTGTEFMQDPDEEFMKKSREKYVLELQSPRYTRLRDWHHQRSAHVLNVQS,soluble
5,MDSKILTMFNQGKHEEAIQAAVKAIDAAPDDPKRYAMLATMLISIKALDQAGELLAKARQLFPEDLELQYTAGLFAYAQADFAAAVSWFAKVRTDQTLKNDATYMLALSYQQAGQPTKALAFALTAHDLAPKQLDTALLAADLLMANDVFDAAARVLKPLLATEQPQVLFTYGMALSAAGKDGSHYLNKAKALDPKGYDQKANIVADINRFLRLQEGLEHHHHHH,not soluble
6,MDSMDHRIERLEYYIQLLVKTVDMDRYPFYALLIDKGLSKEEGEAVMRICDELSEELATQKAQGFVTFDKLLALFAGQLNEKLDVHETIFALYEQGLYQELMEVFIDIMKHFD,soluble
7,MDSPRVERFRAQVTDTFVPNLTWAMAPVTATINLFQDFQSYQRLAQQNRELRSELRRMQAWKEAALQLEQENARLLDLNNVRLDPRLTYITGVVLADSGSPFRQSVLINVGSRDGLVDGWATMDGIGLVGRISGVADKTARVILLTDASSRIPAIIQPSGQRVIVSGDNSAAPFIDFLEDSDLVKPGHRVISSGDGGVFPAGLLIGQVAADPTGKLRVIMAADYQRLEFLRVLRHHGTTTVSDSAQIIGPQLPVAEATQLEHHHHHH,not soluble
8,MDSSVPMIDLSSGDDEEVEVAMRRSYLLPPVPERPDGFPSLLFGNGNLSRSTLSINQEISMAPSPFSEITVSSQRPLVARSGSNSSEHNLQIKEAVKKKPVADIAHVSGTFVCVCVRGAQKNFYQKYLIATPSIPKLNTFE,soluble
9,MDSVELCLPESFSLHYEEELLCRMSNKDRHIDSSCSSFIKTEPSSPASLTDSVNHHSPGGSSDASGSYSSTMNGHQNGLDSPPLYPSAPILGGSGPVRKLYDDCSSTIVEDPQTKCEYMLNSMPKRLCLVCGDIASGYHYGVASCEACKAFFKRTIQGNIEYSCPATNECEITKRRRKSCQACRFMKCLKVGMLKEGVRLDRVRGGRQKYKRRIDAENSPYLNPQLVQPAKKPYNKIVSHLLVAEPEKIYAMPDPTVPDSDIKALTTLCDLADRELVVIIGWAKHIPGFSTLSLADQMSLLQSAWMEILILGVVYRSLSFEDELVYADDYIMDEDQSKLAGLLDLNNAILQLVKKYKSMKLEKEEFVTLKAIALANSDSMHIEDVEAVQKLQDVLHEALQDYEAGQHMEDPRRAGKMLMTLPLLRQTSTKAVQHFYNIKLEGKVPMHKLFLEMLEAKV,soluble
10,MDTGELHDLTVKGAVVTQLERCEVACQRLFQNLALLGLELQNSESITEGVCDSKAASDLGSSVELLENEERALRLCVDRFVLELRQVENLAKTLDGIREEEERILSLEQRSIEQAERCFYLWNDAREMLRGTRLTSIKEVLESAARYPRIPSWTPLPTSN,not soluble
11,MDTSSVGGLELTDQTPVLLGSTAMATSLTNVGNSFSGPANPLVSRSNKFQNSSVEDDDDVVFIEPVQPPPPSVPVVADQRTITFTSSKNEELQGNDSKITPSSKELASQKGSVSETIVIDDEEDMETNQGQEKNSSNFIERRPPETKNRTNDVDFSTSSFSRSKTKTGVGPFNPGRMNVAGDVFQNGESATHHNPDSWISQSASFPRNQKQPGVDSLSPVASLPKQIFQPSVQQQPTKPVKVTCANCKKPLQKGQTAYQRKGSAHLFCSTTCLSSFSHKPAPKKLCVMCKKDITTMKGTIVAQVDSSESFQEFCSTSCLSLYEDKQNPTKGALNKSRCTICGKLTEIRHEVSFKNMTHKLCSDHCFNRYRMANGLIMNCCEQCGEYLPSKGAGNNVLVIDGQQKRFCCQSCVSEYKQVGSHPSFLKEVRDHMQDSFLMQPEKYGKLTTCTGCRTQCRFFDMTQCIGPNGYMEPYCSTACMNSHKTKYAKSQSLGIICHFCKRNSLPQYQATMPDGKLYNFCNSSCVAKFQALSMQSSPNGQFVAPSDIQLKCNYCKNSFCSKPEILEWENKVHQFCSKTCSDDYKKLHCIVTYCEYCQEEKTLHETVNFSGVKRPFCSEGCKLLYKQDFARRLGLRCVTCNYCSQLCKKGATKELDGVVRDFCSEDCCKKFQDWYYKAARCDCCKSQGTLKERVQWRGEMKHFCDQHCLLRFYCQQNEPNMTTQKGPENLHYDQGCQTSRTKMTGSAPPPSPTPNKEMKNKAVLCKPLTMTKATYCKPHMQTKSCQTDDTWRTEYVPVPIPVPVYIPVPMHMYSQNIPVPTTVPVPVPVPVFLPAPLDSSEKIPAAIEELKSKVSSDALDTELLTMTDMMSEDEGKTETTNINSVIIETDIIGSDLLKNSDPETQSSMPDVPYEPDLDIEIDFPRAAEELDMENEFLLPPVFGEEYEEQPRPRSKKKGAKRKAVSGYQSHDDSSDNSECSFPFKYTYGVNAWKHWVKTRQLDEDLLVLDELKSSKSVKLKEDLLSHTTAELNYGLAHFVNEIRRPNGENYAPDSIYYLCLGIQEYLCGSNRKDNIFIDPGYQTFEQELNKILRSWQPSILPDGSIFSRVEEDYLWRIKQLGSHSPVALLNTLFYFNTKYFGLKTVEQHLRLSFGTVFRHWKKNPLTMENKACLRYQVSSLCGTDNEDKITTGKRKHEDDEPVFEQIENTANPSRCPVKMFECYLSKSPQNLNQRMDVFYLQPECSSSTDSPVWYTSTSLDRNTLENMLVRVLLVKDIYDKDNYELDEDTD,soluble
12,MDTVNNYRVLEHKAAGHDGTLTDGDGLLIFKPAFPQELEFYKAIQVRDVSRRKSSADGDAPLCSWMPTYLGVLNEGAKIEQSGDAALLKIDERLSDSTDNLDSIPVKSEKSKQYLVLENLLYGFSKPNILDIKLGKTLYDSKASLEKRERMKRVSETTTSGSLGFRICGMKIQKNPSVLNQLSLEYYEEEADSDYIFINKLYGRSRTDQNVSDAIELYFNNPHLSDARKHQLKKTFLKRLQLFYNTMLEEEVRMISSSLLFIYEGDPERWELLNDVDKLMRDDFIDDDDDDDDNDDDDDDDAEGSSEGPKDKKTTGSLSSMSLIDFAHSEITPGKGYDENVIEGVETLLDIFMKFLEHHHHHH,soluble
13,MDTWKVGPVELKSRLILGSGKYEDFGVMREAIAAAKAEVVTVSVRRVELKAPGHVGLLEALEGVRLLPNTAGARTAEEAVRLARLGRLLTGERWVKLEVIPDPTYLLPDPLETLKAAERLIEEDFLVLPYMGPDLVLAKRLAALGTATVMPLAAPIGSGWGVRTRALLELFAREKASLPPVVVDAGLGLPSHAAEVMELGLDAVLVNTAIAEAQDPPAMAEAFRLAVEAGRKAYLAGPMRPREAASPSSPVEGVPFTPTGPRPGRGPQ,soluble
14,MDVADISKKQSILKQFEREGVKNVLFTDCLRQHDENVKKHPVIRCLMFQIVPLVSKLIESTSRFHREEERCYCLMVIGVPNVGKSSLINALRRTYLKKGKASKVGAEPGITKAVLTKIQVCERPIIHLLDTPGVLPPRIENIETGMKLALCGTVLDHLVGEDVIADFLLFSLNRLERFSYVEKYSLEEPCDDIQHVLKCIAVKLGKTRRVKAITGVGNITVQLPDYSAAAYDFIRAFRKGELGKVMLD,not soluble
15,MDVDRLMRDLSVEQLENIQQNLEKEMEGKRESLREMVGRRYRDVLEASSEVRHVCSLADKLASDIANTRVGYQSTHVRTGGREEQKAGEHLYAVNYLVSSIGGDSGEPLDDVVALCMVEHLQKQLISNHSSPMIHKNARALTNRIVATRSELEFQNCSTLLDISRSDWATNQLAAIALLQGKDISQLLELYLEKRFEHVTHLIEDSATILNIVDEMKKTLAVVEELFVHGELIHAIHSVCNGQYKCELIREMCADQAYSFEKTINEDMDRVWRHLREKLSGRGAGTLPSQLVGEKCAAWIEKTCAVTHKLVAEVCEYFDNLDQIIDLLQAITASLKQDWPRIGSNRSVYDKLLQTAVVDKAKILLIQMIESIELFAKKRFESTSDGPQTAIFDERTYHPDSQSHIGISTQLYNCVKTLWESLEQTNEKCAQFETICTPMADMATSNALKETMATNVLQLLLRLCELHSDKQEGSARFLARARLALALVHSESTLICKLLDKDSQRITSLNQRLHSIIEKNLG,not soluble
16,MDVNVNIDTNAEKQAISPYIYGTNQDFSNAKVTARRIGGNRSTGYNWENNDSNAGTDWKNESDNYWLTLYDVPKEKYNEPASVYTAFHDKSLAMGVPYSLVTLQAGGYVAADQSGPLANTDVAPSSKWKKVEFNKNGPLSLTPDTTDGSVYMDEFVNYLVNKYGSASGSKGIKGYSLDNEPSLWPSTHPLIHPDKTKCSEVLDKDTQLAQVVKKIDPAAETFGPALFGFSAFNDFNSSPDWSSVKGNYQWFIDYYLDNMKKNSDAAGKRLLDALDLHWYPEAKGGGQRVTTSDTSNVDCNKARMQAPRSLWDSTYTEDSWIGQWCKWGLPLIPKVKSSIDKYYPGTKLSFSEYNYGGEDHISGGIAQADALGVFGKYGVYFATYWECNSDKNNYVQSAFNLYNNYDGNNSKYGDTDVKCDTSDINNSSTYASVTSNDGNKMDIIVMNKNYTDSINFNFNVSSNKNYTSGQVWGFDSNSSNITKRDDVSSISGNKFTYKIPALTAVHIVLLEHHHHHH,soluble
17,MDVVFETVNCLESNRKIIIVKLPDGSSEKFFFNVTKRAFEKIVCVDGKPVQMDSDLTPHHSVWCPHIHKNIIFAYNHLLRMNLQYLFDSETLSFHETKCDQCHLDPKKSTNVKQILLVAASPKIRRPIVLTMSQEGRVLKMCYDEIEKNYVDMSPTEIKALTQLKDVTAAMEDLTLDSKVMESDLIPLVKEKSVFLPHDSILIAKNKKTNKIGQYVFDRYHHQFLEVVMSDIEIKQEMPNIAKLINVTMSTKTEQAISIRCTPGIGELKKFHYNRETASFDPMEEKAIVESDEEIQSFIEEIEKTQDIVCKKIKAILWFYHNVKPFLAKKLENPVKKNNDYKRYVFKPVEPEEKVDDEMDSVSEPESDSLSMSSSSRSSSRSSLSSDDSFEMVVDIDFVE,not soluble
